T1: GbpC (glucan-binding protein C), extracellular fragment (Streptococcus mutans, UniProt Q8DTF1 111-522)
T1 sequence: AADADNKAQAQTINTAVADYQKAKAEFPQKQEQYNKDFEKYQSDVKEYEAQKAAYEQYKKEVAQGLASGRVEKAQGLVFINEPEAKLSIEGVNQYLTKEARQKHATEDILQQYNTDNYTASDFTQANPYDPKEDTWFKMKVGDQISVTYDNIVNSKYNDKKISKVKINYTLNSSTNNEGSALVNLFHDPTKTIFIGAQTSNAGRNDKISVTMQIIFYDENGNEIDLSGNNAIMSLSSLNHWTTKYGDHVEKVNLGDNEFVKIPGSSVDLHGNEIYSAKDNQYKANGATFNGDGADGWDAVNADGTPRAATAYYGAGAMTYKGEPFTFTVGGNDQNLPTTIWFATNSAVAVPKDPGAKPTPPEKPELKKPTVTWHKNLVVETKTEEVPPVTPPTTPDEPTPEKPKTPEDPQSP

B1: A30 (ssDNA)
DNA: AGATACCAATACGCTGCCTTCTTGAAAAAGGGTAGCGCAGGCCGCTAATGACATAACTGCCACTGGTAACGACATC
B2: A65 (ssDNA)
DNA: AGATACCAATACGCTGCCTTTCCAATTACGCCATGCATCACCCCTAAAATCTGAATACGCCACTGGTAACGACATC
B3: A39 (flanked) (ssDNA)
DNA: AGATACCAATACGCTGCCTAGCCCCTACCCTGTTGCTCCCCCTCGCCCCTCTCACCCCGCCACTGGTAACGACATC
B4: A96 (flanked) (ssDNA)
DNA: AGATACCAATACGCTGCCCCGCCGGTCCCGAGCTACAACACTTTACGCCCCCCTCCCCGCCACTGGTAACGACATC

Experiments:
[1] = biological target: T1, GbpC (glucan-binding protein C), …; experiment: MST
[2] = biological target: T1, GbpC (glucan-binding protein C), …; experiment: AlphaScreen
[3] = biological target: T1, GbpC (glucan-binding protein C), …; experiment: BLI

Binder	Kd [1] [µM]	binding result [2]	Kd [3] [µM]
TAGCCCCTACCCTGTTGCTCCCCCTCGCCCCTCTCACCCC (ssDNA) [A39 truncated]	19.6		
B1		binds	
CCGCCGGTCCCGAGCTACAACACTTTACGCCCCCCTCCC (ssDNA) [A96 truncated]	66.9		
B2		binds	
B3			5.7
B4	8.5		0.4
